Test results taken from article PMC4728063.

Molecular target: T1, RS1 (retinoschisin), human, recombinant, secreted from Sf21 insect cells (human), O15537
T1 chain: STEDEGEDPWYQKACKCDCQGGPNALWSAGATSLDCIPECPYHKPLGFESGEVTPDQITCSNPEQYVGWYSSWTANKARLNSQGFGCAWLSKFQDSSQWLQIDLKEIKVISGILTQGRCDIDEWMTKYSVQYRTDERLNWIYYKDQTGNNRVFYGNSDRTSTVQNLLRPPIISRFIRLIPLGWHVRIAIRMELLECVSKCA
Assay: negative stain single particle electron microscopy; purified RS1 adsorbed to glow discharged carbon-coated copper grids, stained with 0.75% uranyl formate; 2D classification (SPIDER) and 3D reconstruction (EMAN2, RELION, D8 symmetry enforced)
Details: remark: other sources report otherwise

stoichiometry N: 8
B1: RS1 (retinoschisin), human, recombinant, secreted from Sf21 insect cells, O15537 24-224 (natural protein)
chain: T1 chain
